Experimental data published in patent US20190389961A1 (INNATE PHARMA, published 2019).

How the values were obtained:
[1] = biological target: T1, murine CD39 expressed on CHO cells (murine, UniProt P55772 1-510); assay: flow cytometry titration on CHO-moCD39 cells
T1 construct: whole, on cells; also called CHO-moCD39; moCD39
T1 sequence (looked up): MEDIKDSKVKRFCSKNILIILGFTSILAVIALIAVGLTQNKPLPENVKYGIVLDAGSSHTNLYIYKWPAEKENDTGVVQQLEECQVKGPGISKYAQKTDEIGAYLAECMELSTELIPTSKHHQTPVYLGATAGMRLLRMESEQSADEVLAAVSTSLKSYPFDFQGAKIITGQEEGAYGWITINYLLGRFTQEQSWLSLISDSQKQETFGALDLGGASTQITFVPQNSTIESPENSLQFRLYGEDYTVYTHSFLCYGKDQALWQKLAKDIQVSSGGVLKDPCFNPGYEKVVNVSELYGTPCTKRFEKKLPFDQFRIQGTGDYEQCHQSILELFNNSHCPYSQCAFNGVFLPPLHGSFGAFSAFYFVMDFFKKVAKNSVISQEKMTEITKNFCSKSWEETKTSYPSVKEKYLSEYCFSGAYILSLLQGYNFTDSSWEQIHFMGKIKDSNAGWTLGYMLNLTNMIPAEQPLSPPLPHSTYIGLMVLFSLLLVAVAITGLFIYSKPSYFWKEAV
Description: (§1) Cells were incubated with various concentration of unlabeled anti-CD39 antibody from 30 μg/ml to 5×10-⁴ μg/ml, for 30 minutes at 4° C. After washes, cells were incubated with Goat anti-mouse H+L labeled secondary antibody for 30 min at 4° C.

[2] = biological target: T2, human CD39 (vascular CD39, NTPDase1) expressed at the surface of cells (human, UniProt P49961 1-510); assay: flow cytometry on Ramos lymphoma cells, first set of experiments
T2 construct: also called huCD39; CHO-huCD39
T2 sequence: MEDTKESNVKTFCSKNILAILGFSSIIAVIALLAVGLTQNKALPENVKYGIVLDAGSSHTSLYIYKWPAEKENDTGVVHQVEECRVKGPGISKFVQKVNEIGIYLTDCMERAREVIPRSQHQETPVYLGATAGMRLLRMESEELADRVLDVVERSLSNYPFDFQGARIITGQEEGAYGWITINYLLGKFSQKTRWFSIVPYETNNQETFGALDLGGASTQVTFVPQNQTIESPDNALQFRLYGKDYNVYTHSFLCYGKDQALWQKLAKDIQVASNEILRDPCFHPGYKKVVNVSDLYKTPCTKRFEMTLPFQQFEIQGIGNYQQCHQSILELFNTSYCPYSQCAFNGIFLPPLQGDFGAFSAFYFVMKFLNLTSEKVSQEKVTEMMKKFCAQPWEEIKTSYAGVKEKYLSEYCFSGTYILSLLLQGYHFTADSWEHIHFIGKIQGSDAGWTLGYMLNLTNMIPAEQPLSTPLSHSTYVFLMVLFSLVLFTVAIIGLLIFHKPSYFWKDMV
Description: as §1

[3] = biological target: T3, recombinant human CD39-L2 (NTPDase6, ENTPD6) (human, UniProt O75354 61-484, limits assumed); assay: ELISA on plate-coated recombinant huCD39 L2; the single curve has no legend on the sheet, I-394 by the legend paragraph 70
T3 construct: Genbank NP_001238 is printed
T3 sequence: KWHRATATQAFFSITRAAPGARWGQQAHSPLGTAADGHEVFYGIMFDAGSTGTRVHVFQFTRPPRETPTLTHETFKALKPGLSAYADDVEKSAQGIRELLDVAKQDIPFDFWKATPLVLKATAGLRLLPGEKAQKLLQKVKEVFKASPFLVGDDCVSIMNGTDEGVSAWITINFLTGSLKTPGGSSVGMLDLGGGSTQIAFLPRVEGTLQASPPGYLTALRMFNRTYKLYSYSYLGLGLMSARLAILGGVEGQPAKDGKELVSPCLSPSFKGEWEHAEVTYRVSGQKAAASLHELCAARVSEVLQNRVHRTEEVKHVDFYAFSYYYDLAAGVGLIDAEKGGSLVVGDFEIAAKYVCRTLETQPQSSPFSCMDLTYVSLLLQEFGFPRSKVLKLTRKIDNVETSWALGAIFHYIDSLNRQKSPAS
Description: (§2) Wells were washed in TBS Tween 20, and further saturated 2H at RT in TBS Blocking buffer. Dose range concentration of primary antibody was incubated in TBS blocking buffer for 2 h at RT. Wells were washed in TBS Tween 20. […] Optical density was measured on Enspire™ at OD=450.

[4] = biological target: T4, recombinant human CD39-L3 (NTPDase3, ENTPD3) (human, UniProt O75355 44-485, limits assumed); assay: ELISA on plate-coated recombinant huCD39 L3; the single curve has no legend on the sheet, I-394 by the legend paragraph 70
T4 construct: Genbank NP_001239 is printed
T4 sequence: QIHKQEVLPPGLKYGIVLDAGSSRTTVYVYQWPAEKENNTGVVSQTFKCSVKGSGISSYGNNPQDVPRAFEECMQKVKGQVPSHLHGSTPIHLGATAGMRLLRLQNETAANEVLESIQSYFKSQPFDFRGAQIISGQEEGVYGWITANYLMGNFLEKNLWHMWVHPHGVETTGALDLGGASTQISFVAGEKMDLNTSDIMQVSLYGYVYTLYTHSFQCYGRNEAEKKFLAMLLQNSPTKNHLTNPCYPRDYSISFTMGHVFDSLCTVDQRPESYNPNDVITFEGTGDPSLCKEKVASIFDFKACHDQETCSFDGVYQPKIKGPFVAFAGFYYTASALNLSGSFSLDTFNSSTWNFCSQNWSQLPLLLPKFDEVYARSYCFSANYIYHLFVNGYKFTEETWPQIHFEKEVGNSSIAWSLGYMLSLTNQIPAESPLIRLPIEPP
Description: as §2

binding result [1]: no binding (tested: 30 µg/ml)
EC50 [2]: 0.16 µg/mL
binding result [3]: no binding (tested: about 50 µg/ml)
binding result [4]: no binding (tested: about 50 µg/ml)
B1: antibody I-394 (antibody, V domains shown)
VH: EVQLQQSGPELVKPGASVKMSCKASGYTFTDYNMHWVKQSHGRTLEWIGYIVPLNGGSTFNQKFKGRATLTVNTSSRTAYMELRSLTSEDSAAYYCARGGTRFAYWGQGTLVTVSA
VL: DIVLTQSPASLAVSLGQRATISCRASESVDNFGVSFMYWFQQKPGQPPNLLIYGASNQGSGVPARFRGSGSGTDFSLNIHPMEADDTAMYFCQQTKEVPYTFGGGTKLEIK
notes: Mouse variable regions; Produced in CHO with human IgG1 constant domains carrying L234A/L235E/G237A/A330S/P331S (Kabat EU numbering) and a human Ck constant domain
